Data taken from article PMC11789342, “5-Aminolevulinic acid activates the MdWRKY71-MdMADS1 module to enhance anthocyanin biosynthesis in apple”.

Molecular target: MdWRKY71 (Malus x domestica, UniProt A0A7S5AU16 1-327)
Assay: EMSA; LightShift Chemiluminescent EMSA Kit per manufacturer; buffer, salt, pH and temperature not stated
Details: protein: recombinant; tags: His (pET32a); label: biotin

MdWRKY71, sequence (A0A7S5AU16 entry or part of it): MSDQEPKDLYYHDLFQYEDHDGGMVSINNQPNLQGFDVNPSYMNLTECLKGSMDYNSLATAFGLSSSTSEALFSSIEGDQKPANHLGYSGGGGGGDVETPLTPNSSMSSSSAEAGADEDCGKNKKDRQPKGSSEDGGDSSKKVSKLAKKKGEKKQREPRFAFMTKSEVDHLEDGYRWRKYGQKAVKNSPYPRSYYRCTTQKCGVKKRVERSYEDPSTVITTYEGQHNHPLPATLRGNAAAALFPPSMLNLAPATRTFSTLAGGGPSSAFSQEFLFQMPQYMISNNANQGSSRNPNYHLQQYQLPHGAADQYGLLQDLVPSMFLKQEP

B1: ProMdMADS1 W-box3 mutant probe (dsDNA)
DNA 1: CCTGAGGTTATTAACGCCAAAAGAAAA
DNA 2: TTTTCTTTTGGCGTTAATAACCTCAGG
B1: no binding.

B2: ProMdANS W-box probe (dsDNA)
DNA 1: ATCCCAGATGTGTTGACTGTTCATGCTCAG
DNA 2: CTGAGCATGAACAGTCAACACATCTGGGAT
B2: binds.

B3: ProMdDFR W-box probe (dsDNA)
DNA 1: TGGGACTCTTCATTGACTCTCCGCCACATC
DNA 2: GATGTGGCGGAGAGTCAATGAAGAGTCCCA
B3: binds.

B4: ProMdMADS1 W-box1 mutant probe (dsDNA)
DNA 1: ACTTTGTGGCTTTAGCATTTTGAAGA
DNA 2: TCTTCAAAATGCTAAAGCCACAAAGT
B4: no binding.

B5: ProMdMADS1 W-box2 mutant probe (dsDNA)
DNA 1: ATTTACTATTTTTAGCATTACAATTT
DNA 2: AAATTGTAATGCTAAAAATAGTAAAT
B5: no binding.
